Results on five molecules are retold here after patent US20250019454A1 (BIOCYTOGEN PHARMACEUTICALS BEIJING, published 2025).

Changes are numbered by the printed parent chain.

The target in experiment [1] is T1, His-tagged human TNFR2 (Human TNFR2/CD120b/TNFRSF1B Protein, His Tag, Acrobiosystems Cat #: TN2-5227) (human, UniProt P20333 23-257).
T1 construct: Bought protein; also called hTNFR2-His; Recombinant human TNFR2 proteins with His-tag; not shown: His tag
T1 sequence: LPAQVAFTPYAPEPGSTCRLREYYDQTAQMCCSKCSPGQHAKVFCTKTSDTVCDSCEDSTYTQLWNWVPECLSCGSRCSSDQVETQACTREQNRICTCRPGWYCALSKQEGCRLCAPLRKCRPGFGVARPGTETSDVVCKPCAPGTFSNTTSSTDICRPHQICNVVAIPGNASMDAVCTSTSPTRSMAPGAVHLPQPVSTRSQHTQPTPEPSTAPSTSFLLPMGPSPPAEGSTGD
Nature of the experiment: SPR Biacore 8K, antibody captured on Protein A chip, hTNFR2-His as analyte, 1:1 model. The protocol:
The binding affinity of the anti-TNFR2 antibodies to human TNFR2 and TNFR1 (Tumor necrosis factor receptor 1) were measured using surface plasmon resonance (SPR) using Biacore (Biacore, INC, Piscataway NJ) 8K biosensor equipped with pre-immobilized Protein A sensor chips.
Purified anti-TNFR2 antibodies were diluted to 1 μg/mL and then injected into the Biacore 8K biosensor at 10 μL/min for about 50 seconds to achieve a desired protein density (e.g., about 50 response units (RU)). […] Dissociation was monitored for 600 seconds. The chip was regenerated after the last injection of each titration with Glycine (pH 2.0, 30 μL/min for 30 seconds).

For experiment [2], the target named is T2, human TNFR2 (expressed on cells) (human, UniProt P20333 23-461).
T2 construct: also called hTNFR2; human TNF Receptor 2
T2 sequence: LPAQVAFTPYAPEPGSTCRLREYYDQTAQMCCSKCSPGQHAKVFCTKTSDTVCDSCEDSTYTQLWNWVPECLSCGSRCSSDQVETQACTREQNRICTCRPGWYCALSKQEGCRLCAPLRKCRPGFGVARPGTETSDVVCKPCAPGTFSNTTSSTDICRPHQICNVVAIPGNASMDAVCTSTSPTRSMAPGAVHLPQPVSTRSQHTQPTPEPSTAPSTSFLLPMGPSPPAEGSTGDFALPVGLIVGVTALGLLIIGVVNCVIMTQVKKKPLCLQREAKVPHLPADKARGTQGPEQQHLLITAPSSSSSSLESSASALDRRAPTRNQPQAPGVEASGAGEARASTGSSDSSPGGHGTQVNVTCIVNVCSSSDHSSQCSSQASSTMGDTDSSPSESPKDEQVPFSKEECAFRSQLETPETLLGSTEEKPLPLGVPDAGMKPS
Nature of the experiment: flow cytometry competition, CHO cells with human TNFR2, antibody 2.5 µg/mL, Biotin-hTNFα 0.5 µg/mL. The protocol:
30 μl of Biotin-hTNFα (Acro Biosystems, Cat #: TNA-H82E1) was added to each well (with a final concentration of 0.5 μg/mL in each well). The cells with Biotin-hTNFα and the antibodies were incubated at 4° C. for 30 minutes.
The signals for AF647 and PE were determined by flow cytometry (Thermo Attune NX).

In experiment [3] the target is T3, ΔCRD1-TNFR2 protein (with CRD1 deletion), on CHO-S cells (human, UniProt P20333 23-461).
T3 construct: also called CHO-SΔCRD1-TNFR2
T3 sequence: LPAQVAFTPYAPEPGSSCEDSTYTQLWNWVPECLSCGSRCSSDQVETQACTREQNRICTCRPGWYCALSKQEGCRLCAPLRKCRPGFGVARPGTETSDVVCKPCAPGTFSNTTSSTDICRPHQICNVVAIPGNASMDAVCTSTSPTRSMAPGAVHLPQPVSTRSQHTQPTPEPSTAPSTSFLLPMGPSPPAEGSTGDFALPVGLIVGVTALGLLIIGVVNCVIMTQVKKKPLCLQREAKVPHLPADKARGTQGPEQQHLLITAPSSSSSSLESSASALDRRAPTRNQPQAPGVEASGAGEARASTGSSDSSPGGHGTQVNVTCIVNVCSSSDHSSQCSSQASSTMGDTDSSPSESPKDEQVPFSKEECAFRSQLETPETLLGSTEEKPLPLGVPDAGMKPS
Put plainly: FACS on CHO-S cells with ΔCRD1-TNFR2, AF647 anti-human IgG Fc secondary. An excerpt:
TNFR2 has four cysteine rich domains (CRD). In another experiment, FACS was used to detect the binding of anti-hTNFR2 antibodies to TNFR2 proteins with different structural domains. Secondary antibody (Alexa Fluor® 647 AffiniPure F(ab′) 2 Fragment Goat Anti-Human IgG, Fcγ fragment specific, Jackson ImmunoResearch Laboratories, Inc., Cat #: 151524) was used. The fluorescence-labeled secondary antibody can attach to the Fc region of the anti-hTNFR2 antibodies so that the anti-hTNFR2 antibodies that are bound to the ΔCRD cells can be detected by FACS. Specifically, ΔCRD1-TNFR2 protein (with CRD1 deleteion), ΔCRD2-TNFR2 protein (with CRD2 deleteion), ΔCRD3-TNFR2 protein (with CRD3 deleteion) or ΔCRD4-TNFR2 protein (with CRD4 deleteion) were expressed in CHO-S cells respectively, and then the binding between the cells and different anti-hTNFR2 antibodies was detected.

B1: BC-1B6-IgG1 (antibody, V domains shown)
VH: QVQLVESGGGVVQPGRSLRLSCAASGFTFSNFGMHWVRQAPGKGLEWVAVIWYEGSDKYYADSVKGRFTISRDNSKNTLYLQMNSLRAEDTAVYYCARDSSWGFLLYGMDVWGQGTTVTVSS
VL: DVVMTQSPLSLPVTLGQPASISCRSSRSLEYSDGNTYLNWFQQRPGQSPRRLIYKVSNRDSGVPDRFSGSGSGTAFTLKISGVEAEDVGVYYCMQGTHWPPTFGGGTKVEIK
notes: Human VH/VL joined to the human IgG1 subtype
For orientation: Kd means the free concentration of one partner at which half of the binding sites on the other are occupied at equilibrium, for simple one-to-one binding. For orientation: koff means the first-order rate constant of dissociation. Read a high koff as a short-lived complex. The term kon denotes the second-order rate constant of association. A lower kon goes with slow association. In experiment [1], B1 yielded a Kd of 3.89 nM, a koff of 0.00644 s⁻¹ and a kon of 1.66e+06 M⁻¹ s⁻¹. Besides, in experiment [2], the “percentage of tested cells that had Streptavidin signals” value (from here on “percentage”) turned out to be 87.2%.

B2: BC-1C3-IgG1 (antibody, V domains shown)
VH: QVQLVESGGGVVHPGKSLRLSCAASGFTFNIYGMHWVRQAPGKGLEWVALISYDGNDKYFADSVKGRFTISRDNSKNTLYLQMNSLRAEDTAVYYCAKAVDTAVVTFFDYWGQGTLVTVSS
VL: EIVMTQSPVTLSVSPGERATLSCRASQSVSSNLAWYQQKPGQAPRLLIYSASTRATGIPARFSGSGSGTEFTLTISSLQSEDLAVYYCQQYSNWPFTFGPGTKVDIK
notes: as for B1
Take B2: the “positive rate of binding (% of cells)” value in experiment [3] came to 72.6%. Besides, in experiment [1], binding was characterised by a dissociation constant (Kd) of 9.5 nM, the koff is 0.00115 s⁻¹ and the kon was 121000 M⁻¹ s⁻¹. Besides, the “percentage” value in experiment [2] came to 81.5%.

B3: BC-1A8-IgG1 (antibody, V domains shown)
VH: QVQLQQSGPGLVKPSQTLSLTCAISGDSVSSNSAAWNWIRQSPSRGLEWLGRTYYRSKWYNDYALSVKSRITINPETSKNQFSLQLNSVTPEDTAVYYCAREDGVGGTKDYFDYWGQGTLVTVSS
VL: DIQMTQSPSSLSASVGDRVTITCQASQDIDNYLNWYQQKPGKAPKLLIYDVSNLEIGVPSRFSGSGSGTDFTFTISSLQPEDIATYYCQQYDNLPLTFGQGTRLEIK
notes: Fully human VH/VL joined to the human IgG1 subtype, kappa light chain (RenMab mice)
For the molecule B3, the “positive rate of binding (% of cells)” value in experiment [3] was 64.6%. In experiment [1], the Kd was found to be 1.36 nM, the koff turned out to be 0.00126 s⁻¹ and the kon is 924000 M⁻¹ s⁻¹. Also, the “percentage” value in experiment [2] turned out to be 29.9%.

B4: BC-1F4-IgG1 (antibody, V domains shown)
VH: B3 VH with N32D, A34S, A64T, L65V, E76D
VL: B3 VL with D30S, V51A, I56T, S76N, I83F, Y87F, L96I
notes: as for B1
Regarding B4, the “positive rate of binding (% of cells)” value in experiment [3] was found to be 53.1%. Also, in experiment [1], the Kd stood at 2.21 nM, the koff stood at 0.00159 s⁻¹ and the kon was found to be 718000 M⁻¹ s⁻¹. Moreover, the “percentage” value in experiment [2] was determined as 59.5%.

B5: BC-1F10-IgG1 (antibody, V domains shown)
VH: QVQLQQWGAGLLKPSETLSLICAVYDGSFSGDYWSWIRQPPGKGLEWIGEINHSGSTNYNPSLKSRVTISVDTSKNQFSLKLSSVTAADTAVYYCARGHWNYDYYYGMDVWGQGTTVTVSS
VL: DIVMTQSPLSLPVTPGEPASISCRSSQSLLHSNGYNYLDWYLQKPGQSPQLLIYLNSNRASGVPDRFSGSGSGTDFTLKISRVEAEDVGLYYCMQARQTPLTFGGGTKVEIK
notes: as for B1
As for B5, the “positive rate of binding (% of cells)” value in experiment [3] came to 55.3%. In experiment [1], this molecule registered a Kd of 5.1 nM, a koff of 0.000467 s⁻¹ and a kon of 91500 M⁻¹ s⁻¹. Also, in experiment [2], the “percentage” value stood at 54.5%.
